Measured values from the supplement of paper PMC9732359.
± gives the uncertainty stated by the source.

Experiment: protein stability index of a GFP-peptide fusion (yeast GPS) (PSI 1-4); higher = more stable; sorted into four equal gates, so the index is relative within each strain
How it was run: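 For each peptide, the protein stability index sums the read frequency in every gate after multiplying it by the gate number. Read frequencies came from plasmids that were PCR-amplified from each gate and Illumina-sequenced, with reads assigned to strains by barcodes. The gates were four equal bins of GFP/Cherry fluorescence ratio applied to mid-log yeast in leucine-free medium carrying a pooled library of tiled 17-residue yeast protein peptides fused downstream of GFP on a Cherry-expressing plasmid.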

Row | Sequence | protein stability index (doa10∆) | protein stability index (pdr5∆) | protein stability index (san1∆) | protein stability index (ubr1∆)
1 | NNTEKNDVTNKNINIGK [SIR4] | 2.1 ± 0.055 | 2.21 ± 0.052 | 2.9 ± 0.043 | 2.37 ± 0.044
2 | MACNFQFPEIAYPGKLI [CSL4] | 2.88 ± 0.12 | 2.9 ± 0.12 | 2.76 ± 0.12 | 2.62 ± 0.16
3 | LWINYIKELLNITKNLK [POP4] | 1.34 ± 0.071 | 1.56 ± 0.062 | 1.62 ± 0.11 | 1.78 ± 0.054
4 | VSSKCNDIHLRFMRFLA [ECM29] | 2.23 ± 0.083 | 2.38 ± 0.06 | 2.74 ± 0.18 | 2.08 ± 0.08
5 | IRKYGLNICRQCFREKA [RPS29A] | 1.59 ± 0.067 | 1.67 ± 0.045 | 1.32 ± 0.11 | 1.73 ± 0.065
6 | STFTKHLIKCFFKITLQ [ITC1] | 1.43 ± 0.039 | 1.28 ± 0.03 | 1.51 ± 0.058 | 1.6 ± 0.03
7 | AELDLMSGILHCEDKDY [RPN6] | 2.9 ± 0.052 | 3.08 ± 0.047 | 3 ± 0.046 | 3.13 ± 0.038
8 | LYQTYHVLVGDLIKFSA [FAS1] | 2.2 ± 0.05 | 2.43 ± 0.052 | 2.39 ± 0.044 | 2.31 ± 0.035
9 | VQKQTRAGQRTRFKAVV [RPS2] | 3.04 ± 0.12 | 3.35 ± 0.14 | 3.31 ± 0.15 | 3.23 ± 0.088
10 | EELLLKDLEIRKLEISS [GAL11] | – | 2.31 ± 0.11 | 3.18 ± 0.081 | 1.09 ± 0.12
11 | LSSIEASLKIKNATDLQ [SMC3] | 1.84 ± 0.064 | 2.06 ± 0.091 | 2.56 ± 0.12 | 2.4 ± 0.077
12 | FGPHVDVNDVLTKYIRS [GRR1] | 3.3 ± 0.056 | 3.2 ± 0.061 | 3.41 ± 0.046 | 3.29 ± 0.04
13 | GSRMVRELFVMAREHAP [RPT6] | 1.82 ± 0.074 | 1.68 ± 0.073 | 1.09 ± 0.27 | 1.54 ± 0.079
14 | KASKEIKKVICGAWEPA [SIR3] | 2.15 ± 0.25 | – | – | 2.67 ± 0.11
15 | QGTGKKTASLGNSKDDL [ISW2] | 3.02 ± 0.12 | 2.9 ± 0.18 | 3.41 ± 0.057 | 3.42 ± 0.14
16 | PDFLSKYSAITSSIFQE [NUT1] | 1.88 ± 0.041 | 2.05 ± 0.042 | 2.05 ± 0.06 | 2 ± 0.033
17 | GGSGAATFSVSQASSDL [CSL4] | 3.4 ± 0.08 | 3.31 ± 0.074 | 3.43 ± 0.061 | 3.36 ± 0.06
18 | SAQAETEALLLEHDVEY [DIS3] | 3.19 ± 0.087 | 3.22 ± 0.098 | 3.3 ± 0.095 | 3.15 ± 0.066
19 | LEEFEFKHGPMSLINDA [SMD2] | 3.32 ± 0.073 | 3.22 ± 0.062 | 3.14 ± 0.059 | 3.23 ± 0.055
20 | EITDAYCFAKNDLFFNN [YMR129W/POM152] | 2.59 ± 0.059 | 2.56 ± 0.063 | 2.22 ± 0.071 | 2.61 ± 0.056
21 | VFALHKYKPTPLYVMDE [SMC4] | 2.6 ± 0.081 | 2.85 ± 0.12 | 3.09 ± 0.076 | 3.07 ± 0.056
22 | ALREMRKSDQQDVLKGS [POP1] | 3.36 ± 0.17 | 3.56 ± 0.16 | 3.43 ± 0.14 | 3.22 ± 0.11
23 | ETLAYNSLKETLQDFHL [SNF2] | 2.88 ± 0.054 | 3.04 ± 0.058 | 2.61 ± 0.055 | 2.7 ± 0.042
24 | VVKASELDQFWQEYSSV [SRP14] | 3.04 ± 0.061 | 2.9 ± 0.071 | 3.14 ± 0.072 | 3.27 ± 0.048
25 | FSQKANKTKAVDNTVPS [YOR098C/NUP1] | 2.15 ± 0.085 | 1.63 ± 0.056 | 1.81 ± 0.1 | 2.17 ± 0.046
26 | FKKAAPSPISHVAEIRS [RPB2] | 1.92 ± 0.051 | 1.94 ± 0.046 | 1.77 ± 0.058 | 1.81 ± 0.036
27 | GKQVFSLLIKPNHNSPV [RPO31] | – | 3.33 ± 0.28 | – | –
